The experiment addresses activated human plasma kallikrein (Enzyme Research Laboratories) (human) (UniProt P03952). Nature of the experiment: cell-based or functional assay.
Chain of UniProt P03952 (P03952 20-638 limits assumed): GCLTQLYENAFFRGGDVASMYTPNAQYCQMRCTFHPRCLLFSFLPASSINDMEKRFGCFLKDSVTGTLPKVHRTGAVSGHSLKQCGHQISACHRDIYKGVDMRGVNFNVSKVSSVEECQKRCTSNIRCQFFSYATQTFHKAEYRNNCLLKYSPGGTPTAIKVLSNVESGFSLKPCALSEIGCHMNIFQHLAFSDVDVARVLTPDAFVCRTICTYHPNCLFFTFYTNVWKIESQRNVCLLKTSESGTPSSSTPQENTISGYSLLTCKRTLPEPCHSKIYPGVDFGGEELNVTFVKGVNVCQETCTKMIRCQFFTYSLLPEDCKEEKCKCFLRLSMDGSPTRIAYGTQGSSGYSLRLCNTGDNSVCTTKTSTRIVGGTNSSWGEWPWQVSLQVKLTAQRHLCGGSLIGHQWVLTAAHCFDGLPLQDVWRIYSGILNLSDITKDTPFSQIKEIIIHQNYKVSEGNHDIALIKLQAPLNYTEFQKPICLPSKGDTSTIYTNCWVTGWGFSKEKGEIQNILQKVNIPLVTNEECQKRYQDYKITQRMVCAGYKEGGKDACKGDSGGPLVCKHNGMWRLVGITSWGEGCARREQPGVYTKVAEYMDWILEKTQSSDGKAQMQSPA

In turn, “Therapeutic antibody (GenScript), human anti-pKal antibody (lanadelumab)” showed a suppression of pKal activity (PFR-AMC fluorogenic kinetic enzymatic assay) of 0.1 nM.
